Test results published in the domain aggregation screens of Martell et al. (2025).

Assay: soluble fraction after stress (log2 fold change); higher = more stays soluble; pooled small domains, quantitative proteomics
Conditions: stress: 75 degC
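Also: 20 min heating vs room temperature control held 20 min.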

| Sequence | soluble fraction (log2) |
| --- | --- |
| HMRSLAVGNVVSEEGKPSYLLLDSKRTMLFSENSIPSLYLEDGRRVIVNYTLLDEDYQGYDFRIHVNDIDT | -0.00205 |
| HMRSNADALIGRTARVSQTIVENGFGRVALDGDDWKAQAADGSRIEEGQNVIVKDRDSIILTVEKE | 0.243 |
| HMRSNIYTEEKLWTVLQDFFQENRYLTISLMRMKFGLSRHMAQKWIDHFIAKGLLVKDGTPRSPIYFLND | -2.46 |
| HMRSNQKVSQIAISQVLPGMVTAKNVYSRNDQLILNRETTLDSTKIAKIMFYAIESIYVYEPE | -2.21 |
| HMRSPVDALSNRELQVLQMVGRGLSSRQVAEALHLSVKTVEAHRQRIKGKLGLRTGAQLVQFAANWVTG | -1.75 |
| HMRSREGVRWIIRERIMEELQERHHMDDGELLEMIDRSIGEMGQEIFLPLKERIWLRGSLFDSFR | -3.07 |
| HMRSWRDQRVDDLLAAVSELGMTMSRAAAGDLLDQRVEYVANQMRVTPATARKYLTEETLAGMAREIVFG | -1.02 |
| HMRTAFPQLTERELEILDLIAAGRNNAQIASALYLAPKTVRNNVSNILAKLQATDRAEAIIRARDAGLGG | -0.201 |
| HMRTAKEVFYKELKGYMQNGDELSVKKIYSLFPEINPKTVSWRLHELVQHGKIHRTGHGYYALTQ | -1.37 |
| HMRTDTIINSGGLKINPEEVENEILKSLGDNNFFIDKIKNDKFGEEIILIALKKIKINLLIESLNLI | 0.0576 |
| HMRTFFEIEQLKAYVGEEIQVKFEADSHKQTVLGKLISISEDFIEIENSKKGNLKISLDNYLTSKLIY | -2.23 |
| HMRTGSSVLVGLVAPVRLGATGAPKVFADGALWEARSAVPLNDGQLVEITGTDGLTVLVKPSA | -0.122 |
| HMRTIVSELNDIKGISDASAKKLLIRYGSFEAVREAVMKHEEEFELDMGKRITGALTRYFYEE | -1.78 |
| HMRTKLEEAVEWLQEQLNDGPVLSKELESEAKAADILPGTLRRAGEALGVVKQKQGGRGGWTWSLPR | -0.017 |
| HMRTLGADLRALRKARGLTLAGMADNMGKSVGWMSQIERDISEPSISDLRALAKLLDVSVSSLFR | -2.54 |
| HMRTQEELVAEVREQMEAMGTIATLYVELYESSEERLVGGVIFEDERHYRFVYEDGLLHYEEEK | -0.527 |
| HMRTRSDVKRAAIIQAAKDAFQEYGVNATSMDKLAEMASVSKRTVYNHFSAKEELVMHIVKE | 0.538 |
| HMRTVPEALLGRAYETAETAIVLEGLEAKRTDVFHPTIGNGTVIRLEPASGSQVSAGGVIEIFVSKGTETI | -0.346 |
| HMRVDYKTQLQELLQRQGAAAPQYRLLVEEGPAHLRRFQVGVYFQGRLLGTGWGRNKKEAEQEAARQALMP | -1.9 |

| Sequence | soluble fraction (log2) |
| --- | --- |
| HMRVEEVGYGEFLQMAEERDLAEVQVTDTEIIFSDKDTPPNYYKTGRMDDPFLVDRLYSAGIRDFGE | -0.136 |
| HMRVESVGDRIRRLRKSLGLTQVKLAQMLGIKAPSVVQWESDKTNLSGENLLNAAKLFGVTPDYILYGG | -0.197 |
| HMRVLEYTADGSRLDVLLSQDGVLSRSRAAELIKGGAVTVDGRAEGKPSAKPAPGALVRVEVPE | 0.0615 |
| HMRVVGRNHYDDADLAHIRSVIQLEARPLNVSRIARTLANEYPKHTYWSYLSFLQKNLRDRPDLF | -1.96 |
| HMRVVPEILERAVAVFEALGVDRLPSSTLADRLGYDSPEALADVLRPLGVRPKKYRDGKSTARGYLAADLG | -0.526 |
| HMRYEESVTLGERLLNQSLVALKADNIDDALWERFLREEAGEKSRQEILSDIGLGKRLPVVVAKRLLAPS | -0.115 |
| HMRYPLPYAFARSQQLLLEETDDGRYTLWMSSHPARSAVGEVSRKYGVQTFEVLADGPLAQRISAAYAQ | -0.983 |
| HMRYTAAEMAKKLDISRSYLYYLKEAGVVEIEKNENGKPIWTESVYNQLFEYIKKNHRTEEADNTQ | -0.805 |
| HMSAAIGEAVIATDEINVRSGPGLSHEIVSVVSRNESYPILEERGDWVQIQLNGGQKGWVVSWLIKKKS | -0.665 |
| HMSAAMTESVLDGIPGLGATRKAALLAHFGSVRKLRAATSEQVREVPGIGPRLAETILATLHEP | -0.52 |
| HMSAATGIINTDNVNIRSGPATTYDAVGRLNQGSSVEILSSRNDWYQIQANSLKGWVRNDLLNVQK | -0.00758 |
| HMSADDLVSRTQAIVAELKDLEGPLLPILHSVQEAFGHVPDEVKPVIAEALNLSRAEVHGVVSFYHDFRAH | -0.126 |
| HMSADIGAEKAKTIALNHAGVSASNAVFLHAKLDYDDGRRTYEVEFYSGSKEYDYEIDAATGEILSYDFD | -0.929 |
| HMSAEAYLSFVKKENLRAAVVNYENNKEWLKDVPHERLLDLAVFAKVDMGEPGMSMKFNNWLLSR | -0.934 |
| HMSAEKDGEWLTLTEAAKHLQVSPHVIRRLIQTGALPAEQVMRGAPHQIRAADLDTDRVKTMIAR | 0.133 |
| HMSAEKPVKSELFYKSMLNSFEQAVRFMIANGILEDFKSRIVAINNETNHQNWFNKQEFNAIIERF | -1.49 |
| HMSAERFDFRIGPELAGKRFDQALAEALPQFSRSRLSTWIKDGRATLNGATMRPKDSVHAGDTVVVNAE | -0.186 |
| HMSAEVEVPDVVGRQVALAVQLIETKKLRVNVAETYDAKVPPGQVISQSPEAGMKVKEERVITIYVSR | -1.36 |
| HMSAGISVADVTNRTYDEGYNTLTAQHLLVNKVYEANETIPLDTIIRTDPVAGTKVPDNTSITVYVSSGK | 0.382 |
